The text below walks through data of patent US20100129869.

Holding throughout (experiment): cell_activity
The test system of one data set is ZFN 9477 (engineered). The note with it: pair with ZFN 9476; CHO-S GS-/- B3, Surveyor.
The next data set relates to ZFN 8361 (engineered). The note with it: pair with ZFN 8365; CHO cells, Surveyor.
A further data set relates to ZFN 12172 (engineered). The note with it: pair with ZFN 12176; CHO clone 1F1.6, Surveyor.
A further data set concerns ZFN 9372 (engineered). To be noted: pair with ZFN 9075.
A further data set deals with ZFN 12176 (engineered). The note with it: pair with ZFN 12172; CHO clone 1F1.6, Surveyor.
The next data set has as its system ZFN 7844 (engineered). The note with it: pair with ZFN 9461; CHO-S GS-/- B3, Surveyor.
In a further data set the test system is ZFN 9075 (engineered). The note with it: pair with ZFN 9372.
The subject of another data set is ZFN 8365 (engineered). To be noted: pair with ZFN 8361; CHO cells, Surveyor.
The next data set relates to ZFN 9476 (engineered). The note with it: pair with ZFN 9477; CHO-S GS-/- B3, Surveyor.
A further data set concerns ZFN 9461 (engineered). To be noted: pair with ZFN 7844; CHO-S GS-/- B3, Surveyor.
The mark [1] stands for this setting: wt FokI, CHO-K1, Surveyor, 24% with obligate heterodimer FokI, 25% in CHO-S.
Where [2] appears, read: HEK293, CEL-I, also active in K562.

“AGTCCGGGGGGTGGTG (double strand) [CHO DHFR intron 1 ZFN 9477 half-site]” registered an activity (% modified alleles) in the data set on ZFN 9477 (engineered) of 18.

On to “CTGGGTTGATGGTACTGGAGAAGGACTG (double strand) [CHO GS exon 2 ZFN 8361 half-site]”, for which the activity (% modified chromosomes) in the data set on ZFN 8361 (engineered) was 7.

With “AAGGAGGCAAAGACAAAG (double strand) [CHO FUT8 exon 10 ZFN 12172 half-site]”, the activity (% modified alleles) in the data set with ZFN 12172 (engineered) worked out at 7.5.

Consider “GTTCCCAGGAATGGGCTTGGGG (double strand) [CHO GS exon 6 ZFN 9372 half-site]”, for which, in the data set on ZFN 9372 (engineered) (setting [1]), the activity (% modified chromosomes) turned out to be 26.

On to “AAGAAGGGTCATCAG (double strand) [CHO FUT8 exon 10 ZFN 12176 half-site]”, for which, in the data set with ZFN 12176 (engineered), the activity (% modified alleles) was 7.5.

Regarding “CCAATGCTCAGGTACT (double strand) [CHO DHFR exon 1 ZFN 7844 half-site]”, the activity (% modified alleles) with ZFN 7844 (engineered) amounted to 15.

On to “GAATGGTGCAGGCTGC (double strand) [CHO GS exon 6 ZFN 9075 half-site]”, for which, in the data set on ZFN 9075 (engineered) (setting [1]), the activity (% modified chromosomes) stood at 26.

Take “TATACATGGCTTGGACTTTCTCACCCTG (double strand) [CHO GS exon 2 ZFN 8365 half-site]”: in the data set with ZFN 8365 (engineered), the activity (% modified chromosomes) was determined as 7.

For the substance human GS exon 6 target, the activity in the data set on ZFN 9075 (engineered) (setting [2]) and with ZFN 9372 (engineered) (setting [2]) was 21 % NHEJ in each case.

“CATGGGTAGCCGCTGA (double strand) [CHO DHFR intron 1 ZFN 9476 half-site]” gave an activity (% modified alleles) with ZFN 9476 (engineered) of 18.

Substance “AGGGAAGGTCTCCGTT (double strand) [CHO DHFR exon 1 ZFN 9461 half-site]” gave an activity (% modified alleles) with ZFN 9461 (engineered) of 15.
